± gives the standard deviation of the averaged measurements.
B1: library; a variant is named by its letters at N, in order (parent)
chain: AATGTTGTTGATGCAACCATAAAGTGATATTTAATAATTATTTATAATCAGCAACTTAACCACAAAACAACCATATATTGATATNTCACAAAACAACCATAANTTGATATTTTTGTGAATCGAGTATTTCAGCAAAACTACTGCAGTAAGAA

Key:
[1] = variants of: B1; experiment: relative integration efficiency (T-LR orientation) vs wild-type transposon end (log2 (normalized fold change)); transposon end mutated: left end; higher = more efficient transposition; settings: with VchCAST RNA-guided transposition machinery (E. coli BL21(DE3) host, lacZ target)
How it was run: (§1)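 Each barcoded pool, 1549 left-end or 1849 right-end transposon variants in a pUC57 mini-transposon donor, went into E. coli BL21(DE3) with a T7-driven effector plasmid (CRISPR array, tniQ-cas8-cas7-cas6, tnsA-tnsB-tnsC). Plates contained 0.1 mM IPTG and were held at 37°C for 18 h. Input plasmids and genomic integration junctions were PCR-amplified and read by Illumina sequencing, with two biological output replicates and four reference barcodes. Relative integration efficiency is the fold change of output over input barcode abundance, normalised to the reference barcodes and log-transformed.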

[2] = variants of: B1; experiment: relative integration efficiency (T-RL orientation) vs wild-type transposon end (log2 (normalized fold change)); transposon end mutated: left end; higher = more efficient transposition; settings: with VchCAST RNA-guided transposition machinery (E. coli BL21(DE3) host, lacZ target)
How it was run: as §1

| Variant | relative integration efficiency (log2) [1] | relative integration efficiency (log2) [2] |
| --- | --- | --- |
| CG G26T G80T G106T | -1.86 ± 1.8 | -2.79 ± 1.3 |
| CG T8A T9A G10C A11T | < -10 | -6.573 ± 0.021 |
| CG C60T | 0.161 ± 0.34 | -0.00379 ± 0.0024 |
| CG G26T A27C | -0.945 ± 0.26 | -1.68 ± 0.7 |
| CG C68G A69T | -0.877 ± 0.31 | -1.02 ± 0.41 |
| CG C72G A73T | -1.6 ± 1.4 | -1.44 ± 0.73 |
| CG T12A G13A T30A T31C T32A | -1.04 ± 0.35 | -0.578 ± 0.26 |
| CG C60G C61G | 0.337 ± 0.57 | -0.185 ± 0.23 |
| CG G51C C52G A53T A54T | -0.796 ± 0.93 | -0.34 ± 0.37 |
| CG C61G A62T | -0.236 ± 0.51 | -0.362 ± 0.074 |
| CG G106C A107T | -1.92 ± 1.4 | -1.78 ± 0.63 |
| CG C97G C98G A99T T100A | -0.482 ± 0.85 | -1.36 ± 0.79 |
| CG G117T A118C | 0.251 ± 0.35 | 0.0866 ± 0.029 |
| CG T12A T30A T31C T32A A77C T86G | -0.709 ± 0.52 | -0.451 ± 0.25 |
| CG T12G G13T C14A A15C | -0.59 ± 0.54 | -0.224 ± 0.3 |
| CG G106T A107C T108G A109C | -2.4 ± 0.46 | -2.01 ± 0.81 |
| CG G10C | -1.66 ± 0.034 | -0.357 ± 0.19 |
| CG G10T | -1.38 ± 0.3 | -0.454 ± 0.26 |
| CG G10A | -0.534 ± 0.039 | -0.083 ± 0.089 |
| CG C61G A62T C63G A64T | 0.0811 ± 0.61 | -0.0813 ± 0.26 |
| CG C87A A88C C89A A90C | 0.382 ± 0.34 | 0.292 ± 0.29 |
| CG G117T A118C A119C T120G | 0.0571 ± 0.28 | 0.0586 ± 0.085 |
| CG G80T A81C | -1.7 ± 0.97 | -1.51 ± 0.7 |
| CG C60G C61G A62T C63G | 0.27 ± 0.29 | -0.0479 ± 0.14 |

| Variant | relative integration efficiency (log2) [1] | relative integration efficiency (log2) [2] |
| --- | --- | --- |
| CG T25G G26T | -0.611 ± 0.7 | -0.737 ± 0.33 |
| CG C98G A99T T100A A101T | -1.8 ± 0.21 | -2 ± 0.73 |
| CG G4C T5A | 0.189 ± 0.31 | 0.0402 ± 0.15 |
| CG T12C | -0.943 ± 0.57 | -0.0642 ± 0.048 |
| CG T12G | -0.01 ± 0.2 | -0.917 ± 0.57 |
| CG T12A | 0.00533 ± 0.2 | -0.099 ± 0.056 |
| CG G115T T116G | 0.0607 ± 0.61 | 0.243 ± 0.033 |
| CG T12A G13C | 0.233 ± 0.21 | -0.107 ± 0.067 |
| CG T12A G13A | -0.256 ± 0.34 | -0.294 ± 0.04 |
| CG G117C A118T | 0.236 ± 0.11 | 0.235 ± 0.026 |
| CG T12A G13A T30A T31C T32A A77C | -1.73 ± 0.73 | -0.517 ± 0.24 |
| CG T3A | -0.175 ± 0.58 | -0.148 ± 0.071 |
| CG T3G | 0.394 ± 0.5 | 0.0915 ± 0.044 |
| CG T3C | 0.718 ± 0.1 | 0.297 ± 0.0045 |
| CG G117T A118C A119C T120G C121A G122T A123C G124T T125G | 0.16 ± 0.029 | 0.0955 ± 0.074 |
| CG T12A G13A A77C T86G | -0.125 ± 0.28 | -0.319 ± 0.14 |
| CG C71A C72A | -1.63 ± 1.1 | -1.05 ± 0.77 |
| CG G13T C14A | -1.46 ± 1.2 | -0.416 ± 0.31 |
| CG G122T A123C G124T T125G | 0.252 ± 0.21 | 0.127 ± 0.054 |
| CG G51C C52G | -0.162 ± 0.74 | -0.107 ± 0.11 |
| CG G80T A81C T82G A83C | -2.93 ± 1.9 | -2.64 ± 0.94 |
| CG C97A C98A A99C T100G | -1.52 ± 0.82 | -2.58 ± 1 |
| CG T28A A29T T30A T31A | -0.974 ± 0.69 | -1.12 ± 0.46 |
| CG C68A | -0.255 ± 0.47 | -0.433 ± 0.32 |

| Variant | relative integration efficiency (log2) [1] | relative integration efficiency (log2) [2] |
| --- | --- | --- |
| CG C68T | -1.08 ± 0.81 | -0.627 ± 0.41 |
| CG C68G | -0.736 ± 0.69 | -0.831 ± 0.36 |
| CG T20G A21C | -2.47 ± 0.87 | -2.18 ± 0.77 |
| CG C72T | -0.0498 ± 0.25 | -0.0527 ± 0.2 |
| CG C72A | -0.613 ± 1 | -0.492 ± 0.48 |
| CG C72G | -0.262 ± 0.52 | -0.201 ± 0.43 |
| CG T12A G13A T30A T31C T32A A77C T86G | -0.4 ± 0.61 | -0.303 ± 0.3 |
| CG G117C | -0.761 ± 0.33 | -0.41 ± 0.12 |
| CG G117A | -0.315 ± 0.5 | -0.123 ± 0.016 |
| CG G117T | -0.0744 ± 0.017 | -0.0764 ± 0.036 |
| CG T8A T9A | -0.985 ± 0.14 | -0.297 ± 0.11 |
| CG C94G | -1.16 ± 0.81 | -0.958 ± 0.57 |
| CG C94A | -0.54 ± 0.48 | -0.268 ± 0.25 |
| CG C94T | -0.715 ± 0.59 | -0.669 ± 0.41 |
| CG T12G G13T | -0.641 ± 0.4 | -0.29 ± 0.15 |
| CG C68A A69C | -0.147 ± 0.86 | -0.266 ± 0.23 |
| CG T9G G10T | -0.0361 ± 0.31 | 0.0751 ± 0.11 |
| CG G106A | -1.25 ± 1.6 | -0.788 ± 0.47 |
| CG G106C | -2.1 ± 1.4 | -1.81 ± 0.62 |
| CG G106T | -1.19 ± 0.64 | -0.797 ± 0.42 |
| CG C97A C98A | -1.76 ± 0.82 | -1.7 ± 0.77 |
| CG G24C T25A | -0.543 ± 0.54 | -0.605 ± 0.37 |
| CG G4T T5G | -0.37 ± 0.2 | -0.366 ± 0.035 |
| CG G24A T30A | 0.342 ± 0.15 | 0.261 ± 0.027 |

| Variant | relative integration efficiency (log2) [1] | relative integration efficiency (log2) [2] |
| --- | --- | --- |
| CG G80A | -0.967 ± 1.4 | -0.773 ± 0.37 |
| CG G80T | 0.0932 ± 0.91 | -0.44 ± 0.42 |
| CG G80C | -1.47 ± 0.43 | -2.06 ± 0.66 |
| CG G24C T25A G26C A27T | -2.36 ± 0.61 | -2.38 ± 0.98 |
| CG G7A | -0.532 ± 0.023 | -0.156 ± 0.15 |
| CG G7T | -4.09 ± 0.17 | -2.59 ± 0.72 |
| CG G7C | -0.0662 ± 0.49 | -0.11 ± 0.25 |
| CG G80C A81T T82A A83T | -2 ± 1.1 | -1.88 ± 0.77 |
| CG G115T T116G G117T A118C | -0.131 ± 0.19 | -0.00966 ± 0.025 |
| CG G13C C14G | -0.831 ± 0.62 | -0.232 ± 0.36 |
| CG T25A T79A T105A | -3.4 ± 0.079 | -1.88 ± 0.86 |
| CG T5G T6G | < -10 |  |
| CG T12A G13A T30A T31C T32A T86G | -0.319 ± 0.034 | -0.119 ± 0.27 |
| CG G51C | -0.456 ± 0.66 | -0.42 ± 0.19 |
| CG G51T | 0.637 ± 0.29 | 0.00628 ± 0.18 |
| CG G51A | 0.634 ± 0.19 | 0.302 ± 0.085 |
| CG C98G A99T | -1.62 ± 0.4 | -1.51 ± 0.56 |
| CG T28A | -0.399 ± 0.64 | -0.37 ± 0.28 |
| CG T28C | -0.0735 ± 0.44 | -0.273 ± 0.15 |
| CG C63A A64C | 0.557 ± 0.37 | -0.135 ± 0.079 |
| CG C63G A64T | 0.148 ± 0.19 | 0.1041 ± 0.00033 |
| CG C97G C98G | -1.23 ± 0.91 | -1.07 ± 0.5 |
| CG C87G A88T C89G A90T | 0.251 ± 0.48 | -0.077 ± 0.18 |
| CG T12A G13A T31C T32A A77C T86G | -0.861 ± 0.36 | -0.573 ± 0.15 |

| Variant | relative integration efficiency (log2) [1] | relative integration efficiency (log2) [2] |
| --- | --- | --- |
| CG T12A G13A T30A T32A A77C T86G | -0.499 ± 0.21 | -0.36 ± 0.22 |
| CG T20A A21T | -0.406 ± 0.45 | -0.483 ± 0.31 |
| CG C89A A90C A91C A92C | -0.143 ± 0.65 | -0.537 ± 0.37 |
| CG C71G C72G | -1.67 ± 1.9 | -1.32 ± 0.57 |
| CG G80C A81T | -2.2 ± 1.5 | -2.1 ± 0.85 |
| CG G106C A107T T108A A109T | -1.44 ± 0.63 | -1.36 ± 0.7 |
| CG T20A A21T A22T A23T | -0.732 ± 0.16 | -0.758 ± 0.34 |
| CG T3G G4T T5G T6G | < -10 | -7.767 ± 0.04 |
| CG G24C T78A T104A | -0.403 ± 0.24 | -0.396 ± 0.19 |
| CG C71T | -0.49 ± 0.49 | -0.408 ± 0.23 |
| CG C71A | -0.709 ± 0.022 | -0.461 ± 0.26 |
| CG C71G | -0.452 ± 0.8 | -0.253 ± 0.4 |
| CG T20G A21C A22C A23C | -2.4 ± 0.83 | -3.18 ± 0.88 |
| CG T9A G10C | -2.248 ± 0.0027 | -0.479 ± 0.16 |
| TG G24A T30A T76A T78A T84A C87A | 0.236 ± 0.09 | 0.0157 ± 0.17 |
| CG T12A G13A T30A T31C A77C T86G | -1.07 ± 0.047 | -0.538 ± 0.15 |
| CG C68G A69T A70T C71G | -0.963 ± 0.71 | -1.93 ± 0.91 |
| CG G7C T8A T9A G10C | < -10 | -6.612 ± 0.065 |
| CG T25A G26C A27T T28A | -2.09 ± 0.86 | -2.28 ± 0.71 |
| CG C94A A95C | -0.623 ± 0.98 | -0.474 ± 0.4 |
